{"source": "patent US20050256302A1", "about": "“Novel peptides having camp producing activity” (Japan Science and Technology Agency, priority 2002, published 2005)", "key": {"[1]": {"tested_on": "LLC-PK1 cells", "assay": "cAMP production in LLC-PK1 cells by bovine or canine CRSP", "type": "cell-based, pig", "conditions": "10 minutes, IBMX", "method": "Further, with regard to the peptides of the present invention identified in cow and dog (bovine CRSP and canine CRSP), cAMP productivity of CRSP using LLC-PK1 cells by the same manner as above was investigated.\nLLC-PK1 cells were incubated in a culture medium (a Dulbecco-modified Eagle medium (DMEM) containing 10% of fetal bovine serum). After two days, the cells were washed twice with a DMEM containing 0.05% of bovine serum albumin, the medium in the incubation dish was substituted with a DMEM containing 0.5 mM of 3-isobutyl-1-methylxanthine and 0.05% of bovine serum albumin (DMEM/BSA/IBMX) and incubation was conducted at 37° C. for 30 minutes. After the incubation, the medium was substituted with a DMEM/BSA/IBMX in which CRSP was dissolved so as to make it 0 M and 10^−12 to 10^−6 M and incubation was conducted at 37° C. for 10 minutes. After the incubation, the medium in the incubating dish was removed, ethanol was added thereto and the incubating dish was once frozen in a freezer for the cell lysis. […] After that, 100 μl of 1% γ-globulin and 500 μl of 25% polyethylene glycol were added, the mixture was well mixed and centrifuged and radioactivity of the precipitate was measured using a gamma-counter and compared with radioactivity of the standard curve prepared by cAMP of known concentrations whereupon the amount of cAMP was quantified."}, "[2]": {"target": "T1, Pig calcitonin receptor (CTR) (Sus scrofa, UniProt P25117)", "T1 construct": "expressed in transfected cells; host or cells: COS-7 (given as rhesus monkey renal cells), vector pcDNA 3.1", "T1 sequence (P25117 30-498)": "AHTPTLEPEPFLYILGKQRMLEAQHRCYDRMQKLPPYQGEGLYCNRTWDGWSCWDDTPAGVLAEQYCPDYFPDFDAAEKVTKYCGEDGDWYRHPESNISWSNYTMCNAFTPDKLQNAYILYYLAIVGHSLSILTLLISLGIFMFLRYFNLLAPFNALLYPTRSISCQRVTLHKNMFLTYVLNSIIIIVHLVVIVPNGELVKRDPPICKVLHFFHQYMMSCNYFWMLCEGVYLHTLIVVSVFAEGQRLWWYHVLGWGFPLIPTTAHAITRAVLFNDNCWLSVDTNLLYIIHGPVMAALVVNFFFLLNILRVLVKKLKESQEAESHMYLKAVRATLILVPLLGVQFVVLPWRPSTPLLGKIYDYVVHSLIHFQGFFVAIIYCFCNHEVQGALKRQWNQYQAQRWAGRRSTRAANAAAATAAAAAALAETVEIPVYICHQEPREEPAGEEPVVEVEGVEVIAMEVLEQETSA", "assay": "cAMP production in COS-7 cells expressing pig calcitonin receptor", "type": "cell-based", "conditions": "CTR expressed in COS-7", "method": "Pig calcitonin receptor (CTR) was introduced into a mammalian expression vector pcDNA 3.1, expressed in rhesus monkey renal cells (COS-7) and production amount of cAMP by stimulation of CRSP was measured by radioimmunoassay. Similarly, CTR was expressed in opossum renal cells (OK cells) and production amount of cAMP by stimulation of CRSP was measured by radioimmunoassay while incorporation of sodium ion was measured by measuring the incorporation of sodium chloride having radioactivity (^22Na) by a gamma-counter.\nPig calcitonin receptor (CTR) was introduced into mammalian expression vector pcDNA 3.1 and then expressed in rhesus monkey renal cells (COS-7) whereupon production amount of cAMP by CRSP stimulation was measured by radioimmunoassay.\nPig calcitonin receptor (CTR) was introduced into a mammalian expression vector pcDNA 3.1 and expressed in rhesus monkey renal cells (COS-7) and production amount of cAMP by CRSP stimulation was measured by radioimmunoassay.\nPig calcitonin receptor (CTR) was introduced into a mammalian expression vector pcDNA 3.1, then expressed in rhesus monkey renal cells (COS-7) and production amount of cAMP by CRSP or CRSP-Gly stimulation was measured-by radioimmunoassay."}, "[3]": {"target": "T2, pig calcitonin receptor (CTR) (pig, UniProt P25117)", "T2 sequence": "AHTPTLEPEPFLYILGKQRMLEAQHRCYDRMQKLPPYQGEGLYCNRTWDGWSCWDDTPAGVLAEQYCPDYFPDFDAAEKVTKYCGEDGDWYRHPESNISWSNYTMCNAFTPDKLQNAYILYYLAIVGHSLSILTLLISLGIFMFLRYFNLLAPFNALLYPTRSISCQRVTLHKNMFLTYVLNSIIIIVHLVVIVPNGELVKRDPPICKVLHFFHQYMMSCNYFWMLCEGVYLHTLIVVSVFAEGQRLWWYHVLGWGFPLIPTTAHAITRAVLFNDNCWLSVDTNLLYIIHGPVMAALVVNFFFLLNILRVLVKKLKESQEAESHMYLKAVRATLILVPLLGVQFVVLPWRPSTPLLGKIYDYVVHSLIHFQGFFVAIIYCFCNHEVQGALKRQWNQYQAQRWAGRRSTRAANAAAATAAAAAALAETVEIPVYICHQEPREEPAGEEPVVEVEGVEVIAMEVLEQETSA", "assay": "cell-based or functional assay"}}, "note": "Bridges are numbered along the chain shown (N, C = ends). Where no end group is shown, it is not given here.", "data": [{"molecule": "SCNSATCVAHWLGGLLSRAGSVANTNLLPTSMGFKVYN-OH (not fully specified (bridges); printed as SCNSATCVAHWLGGLLSRAGSVANTNLLPTSMGFKVYN-OH; cysteine pairing not given here; listed as Canis sp.) [canine CRSP]", "values": [{"measurement": "cAMP productivity compared with pig CRSP", "setting": "[1]", "value": "nearly the same result as in the case of pig CRSP"}]}, {"molecule": "Ser-Cys-Asn-Thr-Ala-Thr-Cys-Met-Thr-His-Arg-Leu-Val-Gly-Leu-Leu-Ser-Arg-Ser-Gly-Ser-Met-Val-Arg-Ser-Asn-Leu-Leu-Pro-Thr-Lys-Met-Gly-Phe-Lys-Val-Phe-Gly-Gly-OH (SCNTATCMTHRLVGLLSRSGSMVRSNLLPTKMGFKVFGG-OH; not fully specified (bridges); printed as Ser-Cys-Asn-Thr-Ala-Thr-Cys-Met-Thr-His-Arg-Leu-Val-Gly-Leu-Leu-Ser-Arg-Ser-Gly-Ser-Met-Val-Arg-Ser-Asn-Leu-Leu-Pro-Thr-Lys-Met-Gly-Phe-Lys-Val-Phe-Gly-Gly-OH; cysteine pairing not given here; listed as Sus sp.) [CRSP-Gly]", "values": [{"measurement": "cAMP productivity, CRSP compared with CRSP-Gly", "setting": "[2]", "value": "nearly the same cAMP productivity"}]}, {"molecule": "ACNTATCMTHRLAGWLSRSGSMVRSNLLPTKMGFKIFNGP-OH (not fully specified (bridges); printed as ACNTATCMTHRLAGWLSRSGSMVRSNLLPTKMGFKIFNGP-OH; cysteine pairing not given here; listed as Bos sp.) [bovine CRSP]", "values": [{"measurement": "cAMP productivity compared with pig CRSP", "setting": "[1]", "value": "nearly the same result as in the case of pig CRSP"}]}, {"molecule": "SCNTATCMTHRLVGLLSRSGSMVRSNLLPTKMGFKVFG-NH2 (disulfide 2-7; N-terminus assumed; SMILES CSCC[C@H](NC(=O)[C@H](CCCCN)NC(=O)[C@@H](NC(=O)[C@@H]1CCCN1C(=O)[C@H](CC(C)C)NC(=O)[C@H](CC(C)C)NC(=O)[C@H](CC(N)=O)NC(=O)[C@H](CO)NC(=O)[C@H](CCCNC(=N)N)NC(=O)[C@@H](NC(=O)[C@H](CCSC)NC(=O)[C@H](CO)NC(=O)CNC(=O)[C@H](CO)NC(=O)[C@H](CCCNC(=N)N)NC(=O)[C@H](CO)NC(=O)[C@H](CC(C)C)NC(=O)[C@H](CC(C)C)NC(=O)CNC(=O)[C@@H](NC(=O)[C@H](CC(C)C)NC(=O)[C@H](CCCNC(=N)N)NC(=O)[C@H](Cc1c[nH]cn1)NC(=O)[C@@H](NC(=O)[C@H](CCSC)NC(=O)[C@@H]1CSSC[C@H](NC(=O)[C@@H](N)CO)C(=O)N[C@@H](CC(N)=O)C(=O)N[C@@H]([C@@H](C)O)C(=O)N[C@@H](C)C(=O)N[C@@H]([C@@H](C)O)C(=O)N1)[C@@H](C)O)C(C)C)C(C)C)[C@@H](C)O)C(=O)NCC(=O)N[C@@H](Cc1ccccc1)C(=O)N[C@@H](CCCCN)C(=O)N[C@H](C(=O)N[C@@H](Cc1ccccc1)C(=O)NCC(N)=O)C(C)C)", "note": "[pig calcitonin receptor-stimulating peptide (CRSP)]", "values": [{"measurement": "cAMP-producing activity relative to pig CGRP, LLC-PK1 cells", "setting": "[3]", "value": "~40", "unit": "fold"}, {"measurement": "cAMP-producing activity relative to pig calcitonin, COS-7 cells expressing pig CTR", "setting": "[3]", "value": "~350", "unit": "fold"}, {"measurement": "cAMP-producing activity relative to pig calcitonin, LLC-PK1 cells", "setting": "[3]", "value": "~6", "unit": "fold"}]}]}
